The record followed here is the RNAGym collection of RNA variant scans (doi:10.1093/molbev/msab373).

B1: Azoarcus group I ribozyme (parent)
chain: GUGCCUUGCGCCGGGAAACCACGCAAGGGAUGGUGUCAAAUUCGGCGAAACCUAAGCGCCCGCCCGGGCGUAUGGCAACGCCGAGCCAAGCUUCGGCGCCUGCGCCGAUGAAGGUGUAGAGACUAGACGGCACCCACCUAAGGCAAACGCUAUGGUGAAGGCAUAGUCCAGGGAGUGGCGAAAGUCACACAAACCGG

Variants of B1 are the subject of the data set. The experiment in a line: reverse-splicing fitness (ratio to wild type); higher = more active; in vitro selection; Mg2+ level not given. Put shortly: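 An in vitro group I ribozyme library with randomized positions was T7-transcribed and gel-purified. In triplicate, 10 pmol RNA in EPPS pH 7.5 was reacted with 50 pmoles of a 30-nt RNA substrate for 1 h at 37 °C across several added MgCl2 levels (1–48 mM), then stopped with EDTA. Products were reverse transcribed from a substrate-complementary primer, PCR-amplified and sequenced (HiSeq 4000). Fitness is a variant's read proportion after selection over that before, normalised to wild type.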
Take C82U A111G A145U C150U: the reverse-splicing fitness came to 0.276.
To C82A A111G A120U A145C C150A C169A belongs 0.00211; to A120G A145U C150A C169G, 0.0841; to C82U A111C A120U A145U C150A, 0.00535.
Regarding A111C A120G A145C C150G C169A U176G, the reverse-splicing fitness turned out to be 0.0045.
The value for C82A A111U A120C C150U C169U was 0.0121.
To C82G A111C A120U A145C belongs 0.0432.
The value for C82A A111C A145U C150U C169A U176A was 0.014; that for C82G A111G A145C C150U C169A U176C was 0.00686; that for A111C A145U was 0.839.
On to C82A A111U A120C A145G C150A U176G, for which the reverse-splicing fitness amounted to 0.00997.
The value for A111U A120C C169U U176G was 0.00626; that for A111U A120U C150A C169A U176G was 0.00251; that for C82U A111U A120U A145U C150U was 0.0175.
The value for C82U A111U C150G C169G U176G was 0.00532.
The value for C82A A111G A120U A145C C150G C169U U176C was 0.0028.
Take A120C A145C U176A: the reverse-splicing fitness turned out to be 0.693.
To C82A A111G A120C A145C C150G C169G U176C belongs 0.00812; to C82G A111C A120C A145G C150U, 0.0408.
To C82G A111U A120U A145U C150G C169G U176C belongs 0.00282; to C82A A111U A120U A145U C169G U176C, 0.00323; to C82A A120G C150A C169G U176C, 0.0267.
For C82G A111U A120U C150A C169G U176G, the reverse-splicing fitness came out at 0.00223.
C82A A111U A120G A145U C150A C169U U176C: the reverse-splicing fitness worked out at 0.0164.
The value for C82G A111C was 0.281.
The value for C82G A111C C150G U176G was 0.00449; that for A111U A120C A145G C169A U176A was 0.019.
The value for C82U A111U A145U C150U C169A U176C was 0.00869; that for C82U A111C A145G C150G was 0.0275.
Regarding C82G A145C C169G U176G, the reverse-splicing fitness stood at 0.0041.
With A111G A120U U176A, the reverse-splicing fitness turned out to be 0.432.
To A111C A120C C150G C169A U176G belongs 0.00561; to C82U A111C A120U C150U C169G U176C, 0.00314.
The value for C82U A111C A120G C150A C169A U176C was 0.0186; that for A111U A120G A145G C150U C169U U176G was 0.00563; that for C82A A111U A120C A145U C150U C169U U176C was 0.0137.
To C82A A111G A120C A145G C169G belongs 0.00928; to C82U A111G A120U A145C C150U U176A, 0.00377; to C82G A111U A120U A145C C150U, 0.0116.
For the variant C82U A111U A120C A145U C150A C169G U176G, the reverse-splicing fitness was determined as 0.00527.
As to C82U A145C C150U C169A U176C, the reverse-splicing fitness amounted to 0.00467.
To C82A A111C A145C C169A belongs 0.00711.
As for C82A A111C A145C C169U, the reverse-splicing fitness was 0.0124.
C82U A111C A120G A145G C150U: the reverse-splicing fitness amounted to 0.0115.
To C82G A111C A120G A145C C150G C169U belongs 0.00721.
In the case of C82U A120C A145U C150A C169U U176A, the reverse-splicing fitness was found to be 0.0155.
The value for A111U A120U A145G U176C was 0.266; that for A120G A145U C150U U176G was 0.0161; that for C82G A111G A120U A145C C169G U176A was 0.00244.
The value for A111U A120C A145G C150G C169U was 0.0226; that for A111G A120G A145U C169U U176C was 0.093.
The value for C82A A111G C150A C169G U176A was 0.0221; that for C82U A145U C169A was 0.00801; that for C82U A111U A145U C150G C169G U176A was 0.00698.
As for C82A A111G A120G A145U C150A C169G U176C, the reverse-splicing fitness was determined as 0.0169.
The value for A111U A120G U176A was 0.0388.
To A111U A120U A145G C150A C169G U176A belongs 0.00807; to A111U A120C A145U C150U C169U U176G, 0.0049; to C82G A111C A120G A145G C150U C169G, 0.0134.
To C82U A111C A120G A145U C150A C169U U176A belongs 0.0157.
Consider C82U A111G A145U C150U C169A, for which the reverse-splicing fitness came out at 0.00819.
C82A A111U A145U C150A C169U U176C: the reverse-splicing fitness is 0.0127.
The value for A120G A145C C169U U176G was 0.0181.
The value for A111C A120U A145U C150G C169A was 0.00366; that for C82G A111G A120U A145G C150A C169A U176G was 0.00251; that for C82A A120U C150A C169U U176G was 0.00215.
On to C82U A111G A120U A145U C150U C169U U176A, for which the reverse-splicing fitness is 0.00262.
To A111C A120C A145G C150A C169A U176C belongs 0.0214; to A111C A120C C150G C169U U176G, 0.00523.
Regarding C82A A111G A120G A145C C150G C169A U176G, the reverse-splicing fitness amounted to 0.00564.
The value for C82U A111U A120G A145C C150U C169G U176G was 0.00484.
Regarding A111U A120U A145C C150A C169G U176A, the reverse-splicing fitness stood at 0.00297.
To C82U A111G A120G A145C C150U U176G belongs 0.00386.
Regarding C82A A145G C169U, the reverse-splicing fitness came out at 0.0161.
On to C82G A111G A120G C150G, for which the reverse-splicing fitness is 0.00784.
The value for C82A A111U A120U A145U C169U U176G was 0.00208; that for C82A A111G A120G A145C C169U U176C was 0.0129.
On to A111C A120U A145U C150U C169G U176C, for which the reverse-splicing fitness amounted to 0.00885.
To C82A A111U A120G A145C C150A C169G belongs 0.00858.
To C82A A111C A120C C150A C169A belongs 0.0111; to A111U A120U C169G U176A, 0.00625.
To C82U A111C A120C A145U C150U U176C belongs 0.0144; to A120C A145G C150G C169A U176C, 0.0132.
